Reference: the nanobody polyreactivity screen of Harvey et al. (2022)

Assay: yeast display, Sf9 membrane polyspecificity reagent, FACS + sequencing; frameworks hold sequencing errors
Procedure, shortened: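 A nanobody's polyreactivity label depends on the gate it was sorted from. Yeast display cells were stained with 10% biotinylated, detergent-solubilized Sf9 membrane reagent for 1 hour at 4 °C, enriched on streptavidin microbeads and sorted by FACS. The low and high (top ~1%) gates were set on anti-HA fluorescence for expression and streptavidin fluorescence for reagent binding.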

Sequence	polyreactivity (PSR sort gate)
QVQLVESGGGLVQAGGSLRLSCAASGSIFGAYTMGWYRQAPGKERELVAAITGGGITNYADSVKGRFTISRDNAKNTVYLQMNSLKPEDTAVYYCNAGYPPQTVVVGYDYWGQGTQVTVSS	low polyreactivity
QVQLVESGGGLVQAGGILRLSCAASGFTFQNNAMGWYRQAPGKERELVARITRSDGSTYYADSVKGRFTISRDNAKNTVYLQMNSLKPEDNAVYYCAARYGLLGSSRGGYWGQGTQVTVSS	low polyreactivity
QVQLVESGGGLVQAGGSLRLSCAASGRTFDGNTMGWYRQAPGKERELVAAITKRGGSTYYADSVKGRFTISRDNAKNTVYLQMNSLKPEDTAVYYCNAVWRNWYARVDEYDYWGQGTQVTVSS	high polyreactivity
QVQLVESGGGLVQAGGSLRLSCAASGSTFYVYAMGWYRQAPGKERELVAAIRGGGSTNYADSVKGRFTISRDNAKNTVYLQMNSLKPEDTAVYYCAKLPYTRTYLGSLYDYWGQGTQVTVSS	high polyreactivity
QVQLVESGGGLVQAGGSLRLSCAASGFIFWLYAMGRYRQAPGKERELVAAISNGGSTNYADSVKGRFTISRDNAKNTVYLQMNSLKPEDTAVYYCAAKFPRRFYWYDYWGQGTQVTVSS	high polyreactivity
QVQLEESGGGLVQAGGSLRLICAASGRNFGYYPMGWYRQAPGKERELVAAISGSGGTTYYADSVKGRFTISRDIAKNTVYLQMISLKPEDTAVYYCNAGFGYYWHRGFFQYDYWGQGTQVTVSS	high polyreactivity
QVQLVESGGGLVQAGGSLRLSCAASGRTFFYYAMGWYRQSPGKERELVATITGIGGSTYADSVKGRFTISRDNAKNTVYLQMNSLKPEDTAVYYCNAERGVYWGRYPYKYDYWGQGTQVTVSS	low polyreactivity
QDQLVESVGGLVQAGGSLRLSCAASGNTFRSYVLGWYRQAPGKERELVADISSGDGTNYADSVKGRFTISRDNAKNTVYLQMNSLKREDTAVYYCAKDVYNFRTTHSYFTGYDSWGQGTQVTVSS	low polyreactivity
QVQLVESGGGLVQAGGSLRLSCAASGSTFGRNAMGWYRQAPGKERELVAAISWSASRTYYADSVKGRFTISRDNAKNTVYLQMNSLIPDDTAVYYCAAEYDVGYFGYEYWGQGTQVTVSS	high polyreactivity
QVQLVESGGGLVQAGGSLRLSCAASGYTFRGYAMGWYRQAPGKEREFVAAINWSDGSTYYADSVKGRFTISRDNAKNTVYLQMNSLKPEDTAVYYCNADQYYRVPDNYWGQGTQVTVSS	low polyreactivity
QVQLVESGGGLVQAGGSLRLSCAASGRTFYDNVMGWYRQAPGKERELVAAISSGGSTNYADSVKGRFTISRDNAKNTVYLQMNSLIPEDTAVYYCATNGGGGWAYEYWGQGTQVTVSS	low polyreactivity
QVQLVESGGGLVQAGGSLRLSCAASGFTFVRYAMRWYRQAPGTERELVAAISYSGGRTYYADSVKGRFTISRDTAKNTVYLQMNSLKPEDTAVYYCAADAFRGFYWGQGTQVTVSS	high polyreactivity
QVQLLESGGGLVQAGGSLRLSCAAYGFIFVSNGMGWYRQAPGKEREFVASITSIGGSTYYADSVKGRFTISRDNAKNTVYLQMNSLKPEDTAVYYCAARDIALNAVGRPKEYNRDYWGQGTQVTVSS	low polyreactivity
QVQLVESAGGLVQAGGSLRLSCAASGFIFEWYTMGWYRHAPGKERELVARISSDGSTTYADSVKGRFRISRDNAKNTVYLQMNSLKPEDTAVYYCAADVTYPGLKYIFDYWGQGSQVTVSS	low polyreactivity
QVQLVESGGGLVQAGGSLRLSCAASGIILGSYVMGWYRQAPGKERELVAVISFSGGSTYSADSVKGRFTISRDNAKNTVYLQMNSLKPEDTAVYYCAADNFRSYTIRSPYNYWGQGTQVTVSS	low polyreactivity
QVKLVESAGGLVQAGGSLRLSCAASGSIFNPYDMGWYRQAPGKERELVAAIDWSGGSTYYADSVKGRFTISRDNAKNTVYLQMNSLKPEDTAVYYCNAESYQDTLFGADNDYDYWGQGTQVTVSS	low polyreactivity
LVQLQESGGGLVQAGGSLRLSCAASGTISPGGYMAWYRQAPCTERELVASINVGGSTNYADSVKGRFTISRDNAKNTVYLQMNSLKPEDNALYYCAVWGRNRLQLSYWGQGTQVTVIS	low polyreactivity
QVQLVESGGGLVQGGGSLRLSCAASGRIGKYAMGWYRQAPGKERELVATISSTGTTNYADSVKGRFTISRDNAKNTVYLQMNSLKPEDTAVYYCAARWEYVGYRRRYYRFDYWGQGTQVTVSS	high polyreactivity
QVQLVESGGGLVQAGGSLRLSCAASGSILFYYAMGWYRQAPGKERELVAAITWRGGSTYYADSVKGRFTISRDNAKNTVYLQMNSLKPEDTAVYYCAADLYWYRYYGYDYWGQGTQVTVSS	low polyreactivity
QVQLVESGGGLVQAGGSLRLSCAASGSIFWYNTMGWYRQAPGKERELVASISWDGGTYYADSVKGRFTISRDNAKNTVYLQMNSLKPEDTAVYYCNVAWYWGYDYWGQGTQVTVSS	low polyreactivity
QVQLVESGGGLVQAGGSLRLSCAASGSTSGSYGMGWYRQAPGKERELVAAIRISGDSTYYADSVKGRFTISRDNAKNTVYLQMNSLKPEDTAVYYCAAEAFFWYYGWYDYWGQGTQVTVSS	high polyreactivity
QVQLVESGGGLVQAGGSLRLSCAASGITFYDNAMGWDRQAPGKEREFVAAISKSGGNTYYADSVKGRFTISRDNAKNTVYLQMNSLKPEDTAVYYCDARTQAFSRKGYGYWGQGTQVTVSS	high polyreactivity

Sequence	polyreactivity (PSR sort gate)
QVQLVESGGGLVQAGGSLRLSCAASVSNIKYNAMGWYRQAPGKERELVAAISSSGGTTYYADSVKGRFTISRDNAKNTVYLQMNSLKPEDTAVYYCNKYFRAGNGYGEEDYWGQGTQVTVSS	high polyreactivity
QVQLLESGGGLVQAGGSLRLSCASSGSIFHTYAMGWYRPAPGKERELVAAISSGGRTYYADSVKGRFTISRDNAKNTVYLQMNSLKPEDTAVYYCAVRPRPGYYYWGQGTQVTVSS	high polyreactivity
QVQLVESGGGLVQAGGSLRLSCAASGRTFSYYTMGWYRQAPGKERQLVARISNRGTNTYYADSVKGRFTISRDNAKNTVYLQMNSLKPEDTAVYYCAKYYYTSIVGYDSWGQGTQVTVSS	low polyreactivity
QVQLVESGGGLVQAGGSLRLSCAASGYIFRGYVMGWYRQAPGKERELVAAISYGDGGTYYADSVKGRFTLSRDNAKNTVYLQMNSLKPEDTAVYYCAAPPYSFWGDYYSAGYYYWGQGTQVTVSS	low polyreactivity
QVQLVESGGGLVQAGGSLRLSCAASGFTFTWYAMGWYRQAPGKERELVASISRSGGSTYYADSVKGRFTISRDNAKNTVYLQMNSLKPEDTAVYYCAAVSRTRSYDYWGQGTQVTVSS	high polyreactivity
QVQLVKSGGGLVQAGGSLRLSCAASGSTFNKYTMGWYRQAPWKERELVAAITSGDSTYYADSVKGRFTISRDNAKNTVYLQMNSLKPEDTAVYYCAKSLRAYRHVIYGKALYSWGQGTQVTVSS	low polyreactivity
QVQLVESGGRLVQAGGSLRLSCAASGSIFDAYAMGWYRQAPGKERELVAAITTVGSTNYADSVKGRFTISRDNAKNTVYLQMNSLKPEDTAVYYCNADCNTDIVPTPYDYWGQGTQVTVSS	low polyreactivity
QVQLVESRGGLVQAGGSLRLSCAASGSIFYSNFMGWYRPAPGKERELVARITDAGSTNYADSVKGRFTISRDNAKNTVYLQMNSQKPEDTAVYYCNARLVIYTYDYWGQGTQVTVSS	low polyreactivity
QVQLVESGGGLVQAGGSLRLSCAASGRTFVRYAMGWYRQAPGQERELVARITSRGTSTYYADSVKGRFTISRDNAKNTVYLQKNSLKPEDTAVYYCNKVRTFRDKSRYDYWGQGTQVTVSS	low polyreactivity
QVQLVESGGGLVQAGGSLRLSCAASGRIFGPNAMGWYRQAPGKERELVAAISWSGSSTRYADSVKGRFTISRDNAKNTVYLQMNSLKPEDTAVYYCAARRQSPDRYTKYEYWGQGTQVTVSS	low polyreactivity
QVQLVESGGGLVQAGGSLRLSCAASGSTFTGNAMGWYSQAPGKERELVAAISRSGGRTYYADSVKGRFTISRDNAKNTVYLQMNSLKPEDTAVYYCNAVRNRGQRTAFDYWGQGTQVTVSS	high polyreactivity
QVQLVESGGGLVQAGGSLRLSCAASGFTFPLYAMGWYRQAPGKETELVATISSSGSTYYADSVKGRFTISRDNAKNTVYLQMNSLKPEDTAVYYCIAAIQSYEGSGRYFRFDYWGQGTQVTVSS	low polyreactivity
QVQLVESGGGLVQAGGSLRLSCAASGRTFTGYAMGWYRQAPGKERELVAAITSNGARTYYADSVKGRFTISRDNAKNTVYLQMNSLKPEDTAVYYCNRVRVYTHTAWGDDYWGQGTQVTVSS	low polyreactivity
QVQLVESGGGLVQAGGSLRLSCAASGRIFWTYAMGWYRQAPGKERELVASITWSGGTTYYADSVKGRFTISRDNAKNTVYLQMNSLKTEDTAVYYCNTDVLAPYDSGYWGQGTQVTVSS	low polyreactivity
QVQLVESGGGLVQAGGSLRLSCAASGRIFKQYALGWYRQAPGKERELVAAISVRGGITYYADSVKGRFTISRDNAKNTVYLQMNSLKPEDTAVYYCAKRSYRTHTYDYWGQGTQVTVSS	low polyreactivity
QVQLVESGGGLVQAGGSLRLSCAASGSIFTPYAMVWYRQAPGKERELVATISWRGGSTYADSVKGRFTISRDNAKNTVYLQMNSLKPEDTAVYYCNKEYTFSLYDYWGQGSQVTVSS	low polyreactivity
QVQLVESGGGLVQAGGSLRLSCAASGRIFAYYAMGWYRQAPGTERELVAAISRSGVSTYYADSVKGRFTISRDNAKNTVYLQMNSLKPEDTAVYYCAAERYWTYYSGFVYGGDNYWGQGTQVTVSS	low polyreactivity
QVQLVESGGGLVQAGGSLRLSCAASGRTFQTYAMGWYRQAPGKERELVASINWSDGSTYYADSVKGRFTISRDNAKNTVYLQMNSLKPEDTAVYYCAADSSAWLYDYWGQGTQVTVSS	low polyreactivity
QVQLEESGGGLVQAGGSLRLSCAASGSTLNRYPMGWNRHATGKERELVATIRWSGGSTYYADSVKPRFTISRYNEKHTVDLQMNSLKAEDTAVYYCAPDRYYYRGRYYGYTREFDYWGQGTHVTVSS	high polyreactivity
QVQLGESGGGLVQAGGSLRLICAASGSIFDQYAMGWSRPAPGKERELVAAIDTSGGSTYYADSVKGRFTISRDNAKYTVYLQMNSLKPEDTAVYYCAARGDGTFYEGYDYWGQGTQVTVSS	low polyreactivity
QVQLVESGGGLVQAGGSLRLSSAASGFILGYNTMGWYRQAPGKESELVAAINLSGASTYYADSVKGRFTISRDNAKNTVYLQMNSLKPEDTAVYYCGVRFYSGPGGYPTTRYYYWGQGTQVTVSS	high polyreactivity
